Reference: patent US20250109201A1

Assays:
[1] = target: full-length ILT2 expressed on Jurkat cells (human) (UniProt Q8NHL6); assay: cell-based or functional assay
[2] = target: human ILT2 extracellular and transmembrane domains expressed on CHO cells (human) (UniProt Q8NHL6); assay: flow cytometry, blocking of HLA-G-Fc-PE on CHO cells with high human ILT2
[3] = target: recombinant human LILRA1/LIR-6 (Sino Biological 17220-H08H-100) (human) (UniProt O75019); assay: SPR, LILRA and LILRB family panel
[4] = target: ECD-His tagged human ILT2 haplotype PE01 (human) (UniProt Q8NHL6); assay: SPR, LILRA and LILRB family panel
[5] = target: recombinant human LILRA3/ILT6 (Sino Biological 13549-H08H-100) (human) (UniProt Q8N6C8); assay: SPR, LILRA and LILRB family panel
[6] = target: complement component C1q (Sigma/C1740-1 mg) (human) (UniProt P02745); assay: ELISA, antibody coated in a dilution series, C1q added at 2 µg/mL, biotinylated anti-C1q and streptavidin-HRP
[7] = target: human ILT2 extracellular and transmembrane domains expressed on CHO cells (human) (UniProt Q8NHL6); assay: flow cytometry, CHO cells with high human ILT2
[8] = target: human ILT2 extracellular and transmembrane domains expressed on CHO cells (human) (UniProt Q8NHL6); assay: flow cytometry, CHO cells with low human ILT2
[9] = target: complement component C1q (Sigma/C1740-1 mg) (human) (UniProt P02745); assay: ELISA, antibody coated, C1q in solution, OD 450 nm

Chain of recombinant human LILRA1/LIR-6 (Sino Biological 17220-H08H-100) (human) (O75019 17-461 limits assumed): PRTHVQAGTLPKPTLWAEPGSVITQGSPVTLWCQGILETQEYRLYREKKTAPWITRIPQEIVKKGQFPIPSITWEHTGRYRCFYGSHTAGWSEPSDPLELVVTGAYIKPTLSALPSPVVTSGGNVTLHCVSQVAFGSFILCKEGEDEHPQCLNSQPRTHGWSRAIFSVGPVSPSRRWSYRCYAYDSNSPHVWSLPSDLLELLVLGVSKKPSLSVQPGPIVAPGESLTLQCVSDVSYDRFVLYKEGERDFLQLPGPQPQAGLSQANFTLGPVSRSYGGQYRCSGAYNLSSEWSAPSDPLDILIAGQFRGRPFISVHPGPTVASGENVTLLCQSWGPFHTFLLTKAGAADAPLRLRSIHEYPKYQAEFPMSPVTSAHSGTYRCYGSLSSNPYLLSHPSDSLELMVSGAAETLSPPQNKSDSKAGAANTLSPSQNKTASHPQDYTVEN
Chain of recombinant human LILRA3/ILT6 (Sino Biological 13549-H08H-100) (human) (Q8N6C8 24-439 limits assumed): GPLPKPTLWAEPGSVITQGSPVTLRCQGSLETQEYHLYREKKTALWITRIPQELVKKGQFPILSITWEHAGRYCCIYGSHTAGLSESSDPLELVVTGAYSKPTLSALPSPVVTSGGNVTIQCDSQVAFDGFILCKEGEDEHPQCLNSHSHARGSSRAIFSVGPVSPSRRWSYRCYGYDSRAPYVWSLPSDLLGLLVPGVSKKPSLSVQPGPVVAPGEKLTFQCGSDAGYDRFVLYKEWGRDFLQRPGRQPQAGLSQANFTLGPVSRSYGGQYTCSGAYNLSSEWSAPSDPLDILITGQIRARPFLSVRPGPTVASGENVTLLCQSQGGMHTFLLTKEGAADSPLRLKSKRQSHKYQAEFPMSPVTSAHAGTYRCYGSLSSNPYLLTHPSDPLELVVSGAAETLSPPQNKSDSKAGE
Chain of complement component C1q (Sigma/C1740-1 mg) (human) (P02745 23-245 limits assumed, chain 1 of 3): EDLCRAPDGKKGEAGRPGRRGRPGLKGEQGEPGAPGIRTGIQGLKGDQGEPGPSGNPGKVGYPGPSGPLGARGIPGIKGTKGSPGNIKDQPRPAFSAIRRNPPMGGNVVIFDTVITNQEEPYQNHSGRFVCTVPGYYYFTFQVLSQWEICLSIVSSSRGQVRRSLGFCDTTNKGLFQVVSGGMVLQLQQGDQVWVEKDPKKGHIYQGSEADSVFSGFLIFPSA
Chain of complement component C1q (Sigma/C1740-1 mg) (human) (P02746 28-253 limits assumed, chain 2 of 3, further chain): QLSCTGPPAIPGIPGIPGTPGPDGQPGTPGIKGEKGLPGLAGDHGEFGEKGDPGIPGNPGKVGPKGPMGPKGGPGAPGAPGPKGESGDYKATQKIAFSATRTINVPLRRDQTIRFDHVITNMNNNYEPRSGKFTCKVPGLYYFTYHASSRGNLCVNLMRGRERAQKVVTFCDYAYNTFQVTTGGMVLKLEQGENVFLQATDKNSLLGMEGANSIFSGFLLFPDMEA
Chain of complement component C1q (Sigma/C1740-1 mg) (human) (P02747 29-245 limits assumed, chain 3 of 3, further chain): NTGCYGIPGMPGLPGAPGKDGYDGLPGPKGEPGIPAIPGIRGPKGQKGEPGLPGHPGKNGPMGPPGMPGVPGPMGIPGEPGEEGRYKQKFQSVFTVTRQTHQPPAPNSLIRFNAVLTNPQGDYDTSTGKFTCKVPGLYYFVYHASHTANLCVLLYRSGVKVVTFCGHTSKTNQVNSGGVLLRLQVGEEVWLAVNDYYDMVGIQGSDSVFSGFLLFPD
Chain of ECD-His tagged human ILT2 haplotype PE01 (human) (Q8NHL6 24-458): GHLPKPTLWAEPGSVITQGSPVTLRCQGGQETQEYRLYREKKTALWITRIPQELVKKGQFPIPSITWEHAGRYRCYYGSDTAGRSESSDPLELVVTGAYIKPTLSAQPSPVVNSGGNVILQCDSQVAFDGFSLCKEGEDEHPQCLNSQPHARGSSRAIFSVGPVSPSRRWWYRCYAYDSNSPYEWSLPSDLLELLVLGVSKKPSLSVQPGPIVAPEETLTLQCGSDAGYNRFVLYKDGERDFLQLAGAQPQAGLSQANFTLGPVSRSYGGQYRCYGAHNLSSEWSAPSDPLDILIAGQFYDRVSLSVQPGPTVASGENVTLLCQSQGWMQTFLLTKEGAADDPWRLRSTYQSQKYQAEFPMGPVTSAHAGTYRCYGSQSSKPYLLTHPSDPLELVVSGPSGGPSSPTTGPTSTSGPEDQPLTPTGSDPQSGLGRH
Chain of human ILT2 extracellular and transmembrane domains expressed on CHO cells (human) (Q8NHL6 24-482 limits assumed): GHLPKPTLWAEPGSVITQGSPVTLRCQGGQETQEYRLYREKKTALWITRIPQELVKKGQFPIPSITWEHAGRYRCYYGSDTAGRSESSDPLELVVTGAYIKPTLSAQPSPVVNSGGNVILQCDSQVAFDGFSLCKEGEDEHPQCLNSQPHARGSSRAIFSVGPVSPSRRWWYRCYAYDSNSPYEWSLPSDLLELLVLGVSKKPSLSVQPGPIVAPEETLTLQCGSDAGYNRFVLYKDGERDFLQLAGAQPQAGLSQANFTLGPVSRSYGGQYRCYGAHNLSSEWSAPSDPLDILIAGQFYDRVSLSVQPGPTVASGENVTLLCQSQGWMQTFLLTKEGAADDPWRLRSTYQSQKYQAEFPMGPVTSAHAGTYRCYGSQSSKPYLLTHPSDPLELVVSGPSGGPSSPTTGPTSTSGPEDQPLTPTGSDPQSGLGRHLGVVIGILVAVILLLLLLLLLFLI
Chain of full-length ILT2 expressed on Jurkat cells (human) (Q8NHL6 24-650): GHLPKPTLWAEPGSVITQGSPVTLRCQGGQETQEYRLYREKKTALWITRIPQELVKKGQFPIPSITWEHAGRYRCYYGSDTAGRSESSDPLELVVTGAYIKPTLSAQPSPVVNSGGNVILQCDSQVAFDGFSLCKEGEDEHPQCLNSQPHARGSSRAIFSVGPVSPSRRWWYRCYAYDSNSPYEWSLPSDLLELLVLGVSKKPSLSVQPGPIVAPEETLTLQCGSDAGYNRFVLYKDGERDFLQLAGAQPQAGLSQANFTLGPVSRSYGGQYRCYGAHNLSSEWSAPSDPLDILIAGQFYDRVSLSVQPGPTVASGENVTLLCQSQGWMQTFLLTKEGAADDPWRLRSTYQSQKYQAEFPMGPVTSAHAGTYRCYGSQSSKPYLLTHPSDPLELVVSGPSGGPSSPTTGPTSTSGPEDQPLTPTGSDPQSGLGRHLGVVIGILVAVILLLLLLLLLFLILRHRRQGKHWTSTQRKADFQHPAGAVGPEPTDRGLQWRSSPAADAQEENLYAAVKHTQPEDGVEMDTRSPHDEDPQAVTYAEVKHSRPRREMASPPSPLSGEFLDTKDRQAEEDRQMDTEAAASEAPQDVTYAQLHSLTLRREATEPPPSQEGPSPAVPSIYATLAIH

Substance | Kd [3] [nM] | Kd [4] [nM] | Kd [5] [nM] | other results
HP-F1 (Invitrogen, #16-5129-82) (antibody) | 7.2 | 3.6 | 15 | FcγRIIIa-NFAT luciferase signaling, Average AUC normalized to HP-F1 [1]: 100; FcγRIIIa-NFAT luciferase signaling, EC50 [1]: 32.8 µg/mL; IC50 [2]: 0.307 µg/mL
adalimumab (Myonex), an anti-TNFα IgG1 antibody | – | – | – | EC50 (read off the curve) [6]: 3 µg/mL
1Q-G2 (Creative, #DCABH-4494) (antibody) | 5 | 1.7 | 13 | –
292305 (R&D Systems, #MAB20171) (antibody) | 260 | 2.4 | 100 | –
VMP55 (Novus, #NBP2-50475PE) (antibody) | 32 | 0.15 | 6 | –
isotype control (VRC01 IgG4) (antibody) | – | – | – | AUC [7]: 570; AUC [8]: 542
nivolumab (Evidentric GmbH), an anti-PD-1 IgG4 antibody | – | – | – | Average AUC [9]: 0.52
IgG4 isotype control (CrownBio/C00045-5) (antibody) | – | – | – | Average AUC [9]: 0.5
4F9 (Biorad, #MCA2515F) (antibody) | 40 | 0.89 | 26 | –
238145 (Abcam, #EPR22861-6) (antibody) | 0.81 | 0.24 | < 0.1 | –
